Experimental findings from patent publication US20240228986A1, “ENGINEERED CELLS, ENZYMES, AND METHODS FOR PRODUCING CANNABINOIDS” (priority 2021, published 2024) are described below.

This assay has as its system hexanoic acid. The experiment in a line: GPS-PKC-MPT fusions, hexanoic acid feed in vivo assay (Example 13). It is filed as cell-based, Yarrowia. As for the experimental part: Strain SB-00311 (HCS2, PKS1.1 and PKC1.1) was co-transformed with 1) a construct (pCL-SE-0274) for expression of HMGR and GPS1.1 and 2) a construct (pCL-SE-0406) for expression of a fusion protein that contains, from N- to C-terminus, GPS1.1 and MPT4 linked using the F11 linker sequence or a construct (pCL-SE-0474) for expression of a fusion protein that contains, from N- to C-terminus, GPS1.1, PKC1.1 and MPT4, each linked using the F11 linker sequence.
Transformants were assessed for CBGA production from hexanoic acid. Assay cultures consisted of YNBD+CAA media with 2.5 mM hexanoic acid. After 24 h, an additional 5 mM hexanoic acid was added to each assay culture. Cultures were quenched after 48 h total growth.
Overnight YPD (10 g/L yeast extract, 20 g/L peptone, 2% dextrose) cultures were inoculated from glycerol stocks of the appropriate strain and grown at 30° C. with 250 rpm shaking. Once cultures had reached an OD600 of 4-6, cultures were centrifuged at 500×g for 5 min, supernatants were discarded, and cell pellets were resuspended in equal volume of water. Resuspended cells were centrifuged at 500×g for 5 min, supernatants were discarded, and cells were resuspended in a volume (75 μL×OD×Vculture) of transformation cocktail (45% PEG-400, 0.1 M LiAc, 0.1 M DTT, and 25 ug/100 μL SS Salmon Sperm DNA). For each transformation, >1 μg of plasmid DNA was added to 55 μL cells/transformation cocktail and vortexed for 2 s. Transformations were incubated at 39° C. for 1 h with 250 rpm shaking. Transformations were resuspended in 750 μL YPD with 1 M sorbitol and recovered at 30° C. overnight with 250 rpm shaking. […] Precipitates were pelleted by centrifuging at 4600×g for 10 min and then 200 μL was transferred to fresh plates, sealed, and analyzed via HPLC.
All samples were quenched with equal volume of EtOH containing 0.2 mg/mL internal standard (3,5-Diisopropyl-2-hydroxybenzoic acid CAS #2215-21-6) centrifuged, and clarified solutions were analyzed by HPLC-MS […]

B1: GPS1.1-F11-PKC1.1-F11-MPT4: triple fusion of GPS1.1, PKC1.1 and MPT4 via F11 linkers, SEQ ID NO: 92 (protein)
chain: MSKAKFESVFPRISEELVQLLRDEGLPQDAVQWFSDSLQYNCVGGKLNRGLSVVDTYQLLTGKKELDDEEYYRLALLGWLIELLQAFWLVSDDIMDESKTRRGQPCWYLKPKVGMIAIWDAFMLESGIYILLKKHFRQEKYYIDLVELFHDISFKTELGQLVDLLTAPEDEVDLNRFSLDKHSFIVRYKTAYYSFYLPVVLAMYVAGITNPKDLQQAMDVLIPLGEYFQVQDDYLDNFGDPEFIGKIGTDIQDNKCSWLVNKALQKATPEQRQILEDNYGVKDKSKELVIKKLYDDMKIEQDYLDYEEEVVGDIKKKIEQVDESRGFKKEVLNAFLAKIYKRQKGGAEAAAKEAAAKAGGSGGGSGGGGSGGSGGGGSGGGGSMAVKHLIVLKFKDEITEAQKEEFFKTFVNLVNIIPAMKDVYWGKDVTQKNKEEGYTHIVEVTFESVETIQDYIIHPAHVGFGDVYRSFWEKLLIFDYTPRKGGAEAAAKEAAAKAGGSGGGSGGGGSGGSGGGGSGGGGSMSDNSIATKILNFGHTCWKLQRPYVVKGMISIACGLFGRELFNNRHLFSWGLMWKAFFALVPILSFNFFAAIMNQIYDVDIDRINKPDLPLVSGEMSIETAWILSIIVALTGLIVTIKLKSAPLFVFIYIFGIFAGFAYSVPPIRWKQYPFTNFLITISSHVGLAFTSYSATTSALGLPFVWRPAFSFIIAFMTVMGMTIAFAKDISDIEGDAKYGVSTVATKLGARNMTFVVSGVLLLNYLVSISIGIIWPQVFKSNIMILSHAILAFCLIFQTRELALANYASAPSRQFFEFIWLLYYAEYFVYVFI
modifications: GPS1.1-F11-PKC1.1-F11-MPT4, geranyl diphosphate synthase, polyketide cyclase, membrane-bound prenyltransferase fusion protein
With B1, where the note is “hexanoic acid 2.5 mM plus 5 mM after 24 h, 48 h quench, strain SB-00311 + pCL-SE-0274, average of 44 or 34 transformants”, the CBGA came out at 77.4 ± 32.4 µM. For the same molecule, for the setting “in words, hexanoic acid feed”, the “production of CBGA compared to the GPS1.1-MPT4 double fusion” value is listed as “improved production of CBGA”.
